The numbers were not newly measured in paper PMC3819593, which cites them from elsewhere.

The Kd is the equilibrium constant for the complex coming apart.

The target of one series is LLT1 (Homo sapiens) (UniProt Q9UHP7).
In another series the target is AICL (Homo sapiens) (UniProt Q92478).
Chain of UniProt Q92478 (Q92478 whole entry): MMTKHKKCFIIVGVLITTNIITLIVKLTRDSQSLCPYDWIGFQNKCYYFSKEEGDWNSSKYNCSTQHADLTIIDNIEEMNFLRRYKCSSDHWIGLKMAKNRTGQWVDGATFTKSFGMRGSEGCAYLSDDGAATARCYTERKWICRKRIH

Chain of UniProt Q9UHP7 (Q9UHP7 whole entry): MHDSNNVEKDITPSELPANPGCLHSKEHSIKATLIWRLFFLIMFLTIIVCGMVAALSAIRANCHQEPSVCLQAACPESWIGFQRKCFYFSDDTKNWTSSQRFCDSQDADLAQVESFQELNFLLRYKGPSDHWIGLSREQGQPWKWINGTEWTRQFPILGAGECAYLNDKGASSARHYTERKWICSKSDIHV

Take NKRP1A (from UniProt Q12918): in the series with LLT1 (Homo sapiens), the Kd is 48 µM.

For the substance NKp80 (from UniProt Q9NZS2), the Kd in the series with AICL (Homo sapiens) is 4 µM.
